Measured values as given in IntAct's records for PubMed 24114786.

B1: A-type flagellin (Pseudomonas aeruginosa), P21184 (parent)
chain: MALTVNTNIASLNTQRNLNNSSASLNTSLQRLSTGSRINSAKDDAAGLQIANRLTSQVNGLNVATKNANDGISLAQTAEGALQQSTNILQRMRDLSLQSANGSNSDSERTALNGEVKQLQKELDRISNTTTFGGRKLLDGSFGVASFQVGSAANEIISVGIDEMSAESLNGTYFKADGGGAVTAATASGTVDIAIGITGGSAVNVKVDMKGNETAEQAAAKIAAAVNDANVGIGAFSDGDTISYVSKAGKDGSGAITSAVSGVVIADTGSTGVGTAAGVTPSATAFAKTNDTVAKIDISTAKGAQSAVLVIDEAIKQIDAQRADLGAVQNRFDNTINNLKNIGENVSAARGRIEDTDFAAETANLTKNQVLQQAGTAILAQANQLPQSVLSLLR
B2: BRASSINOSTEROID … 1-associated receptor kinase 1 (Arabidopsis thaliana (Mouse-ear cress)), Q94F62 (parent)
chain: MERRLMIPCFFWLILVLDLVLRVSGNAEGDALSALKNSLADPNKVLQSWDATLVTPCTWFHVTCNSDNSVTRVDLGNANLSGQLVMQLGQLPNLQYLELYSNNITGTIPEQLGNLTELVSLDLYLNNLSGPIPSTLGRLKKLRFLRLNNNSLSGEIPRSLTAVLTLQVLDLSNNPLTGDIPVNGSFSLFTPISFANTKLTPLPASPPPPISPTPPSPAGSNRITGAIAGGVAAGAALLFAVPAIALAWWRRKKPQDHFFDVPAEEDPEVHLGQLKRFSLRELQVASDNFSNKNILGRGGFGKVYKGRLADGTLVAVKRLKEERTQGGELQFQTEVEMISMAVHRNLLRLRGFCMTPTERLLVYPYMANGSVASCLRERPESQPPLDWPKRQRIALGSARGLAYLHDHCDPKIIHRDVKAANILLDEEFEAVVGDFGLAKLMDYKDTHVTTAVRGTIGHIAPEYLSTGKSSEKTDVFGYGVMLLELITGQRAFDLARLANDDDVMLLDWVKGLLKEKKLEALVDVDLQGNYKDEEVEQLIQVALLCTQSSPMERPKMSEVVRMLEGDGLAERWEEWQKEEMFRQDFNYPTHHPAVSGWIIGDSTSQIENEYPSGPR

Variants of: B1
Settings: with bak1_arath BAK1, Q94F62

Row | Variant | effect of a mutation on the interaction
1 | G47A | decreasing interaction strength
2 | G47Y | disrupting interaction strength

Variants of: B1
Settings: with fls2_arath FLS2, Q9FL28
Target sequence in this assay (Q9FL28 whole entry): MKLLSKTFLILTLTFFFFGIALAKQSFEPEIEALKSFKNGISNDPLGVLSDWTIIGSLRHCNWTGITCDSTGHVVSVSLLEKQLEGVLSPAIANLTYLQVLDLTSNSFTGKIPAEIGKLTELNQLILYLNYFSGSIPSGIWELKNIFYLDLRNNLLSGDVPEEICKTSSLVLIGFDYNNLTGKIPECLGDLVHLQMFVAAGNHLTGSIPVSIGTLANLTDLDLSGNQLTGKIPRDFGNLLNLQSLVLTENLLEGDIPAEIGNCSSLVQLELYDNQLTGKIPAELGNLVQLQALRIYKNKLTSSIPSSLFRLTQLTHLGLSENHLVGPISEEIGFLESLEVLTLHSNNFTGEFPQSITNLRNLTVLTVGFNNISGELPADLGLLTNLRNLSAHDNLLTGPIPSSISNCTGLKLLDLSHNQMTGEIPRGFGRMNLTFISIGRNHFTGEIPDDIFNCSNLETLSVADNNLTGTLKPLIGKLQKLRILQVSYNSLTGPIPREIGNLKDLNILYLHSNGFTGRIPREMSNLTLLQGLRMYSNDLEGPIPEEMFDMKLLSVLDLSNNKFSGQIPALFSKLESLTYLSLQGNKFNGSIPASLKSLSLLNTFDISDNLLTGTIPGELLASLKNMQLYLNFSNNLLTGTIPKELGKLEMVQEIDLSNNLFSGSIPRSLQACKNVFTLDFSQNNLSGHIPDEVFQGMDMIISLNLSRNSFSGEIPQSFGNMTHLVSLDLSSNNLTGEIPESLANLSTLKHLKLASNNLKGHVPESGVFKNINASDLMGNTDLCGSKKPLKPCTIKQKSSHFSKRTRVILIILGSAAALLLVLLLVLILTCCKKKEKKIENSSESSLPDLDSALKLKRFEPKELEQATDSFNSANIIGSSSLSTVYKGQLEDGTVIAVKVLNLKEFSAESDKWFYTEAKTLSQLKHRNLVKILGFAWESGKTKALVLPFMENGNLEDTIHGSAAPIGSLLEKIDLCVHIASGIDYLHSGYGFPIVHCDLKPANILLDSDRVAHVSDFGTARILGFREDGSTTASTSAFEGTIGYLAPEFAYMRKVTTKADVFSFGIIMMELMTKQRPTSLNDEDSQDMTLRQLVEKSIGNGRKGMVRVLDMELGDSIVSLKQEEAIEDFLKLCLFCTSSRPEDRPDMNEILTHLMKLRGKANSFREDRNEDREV

Row | Variant | effect of a mutation on the interaction
3 | D43A | disrupting interaction strength
4 | D44A | disrupting interaction strength
5 | A46Y | decreasing interaction strength

Variants of: B2
Settings: with flica_pseai fliC

Row | Variant | effect of a mutation on the interaction
6 | L53A | decreasing interaction strength
7 | V54Y | decreasing interaction strength
8 | F60A;F144A | disrupting interaction strength
9 | Y96A | decreasing interaction strength

Variants of: B2
Settings: with fls2_arath FLS2, Q9FL28
Target sequence in this assay (Q9FL28 whole entry): as above

Row | Variant | effect of a mutation on the interaction
10 | L53A | disrupting interaction strength
11 | V54Y | disrupting interaction strength
12 | F60A;F144A | disrupting interaction strength
13 | Y96A | disrupting interaction strength
